Data from patent US20240425606A1, “ANTI-IL-11RA ANTIBODIES” (Lassen Therapeutics 1, Inc., priority 2021, published 2024).

T1: human IL-11Rα (human, UniProt Q14626 23-363, limits assumed)
T1 construct: Protein coated on ELISA plates and used in solution for BLI; also called hIL-11Rα; hIL-11R
T1 sequence: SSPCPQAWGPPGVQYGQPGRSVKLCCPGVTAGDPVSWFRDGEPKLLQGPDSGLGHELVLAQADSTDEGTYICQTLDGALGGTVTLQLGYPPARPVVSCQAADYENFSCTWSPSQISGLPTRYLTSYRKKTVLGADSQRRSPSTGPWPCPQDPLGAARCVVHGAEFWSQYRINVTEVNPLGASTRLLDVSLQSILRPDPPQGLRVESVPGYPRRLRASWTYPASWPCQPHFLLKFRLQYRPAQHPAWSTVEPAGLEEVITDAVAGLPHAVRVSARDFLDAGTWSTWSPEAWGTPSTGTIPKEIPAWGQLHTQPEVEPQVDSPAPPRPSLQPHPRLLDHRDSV


Each binder was assayed against T1, human IL-11Rα (assay: BLI (Octet RED96e), mAb on anti-human constant domain (AHC) biosensors, hIL-11R in solution).
Text: A further series of antibodies were designed in which the residue at Kabat position 31 of the heavy chain was varied (mAbs 16-32). In this case an alternate biolayer interferometry assay was used to initially rank the antibodies compared to mAb5, the closest relative in sequence to mAbs 16-32. MAbs were loaded onto anti-human constant domain (AHC) biosensors (FortdBio) in 10× kinetics buffer consisting of PBS, 0.1% BSA, 0.02% Tween 20 for 120 s to achieve a spectral shift value of 0.8 to 1.2 nm. Association was carried out in the presence of 2-fold dilution series of hIL-1 IR and was allowed to proceed for 120 s. Dilution series started 10 nM. The dissociation in 10× kinetics buffer for 1200 s. Binding kinetic measurements were taken on an Octet RED96e instrument.

Binder	Kd [pM]	kon [M⁻¹ s⁻¹]	koff [s⁻¹]
mAb29 (antibody, human IgG4, V domains shown, Expressed as human IgG4 (S228P EU)) VH: EVQLLESGGGLVQPGGSLRLSCAASGFTFSSYSMTWVRQAPGKGLEWVSSIVPYGDLTQYADSVKGRFTISRDNSKNTLYLQMNSLRAEDTAVYYCAKGPGWGSFDLWGRGTLVTVSS VL: DIQMTQSPSSLSASVGDRVTITCQASQDINNYLNWYQQKPGKAPKLLIYDASNLQTGVPSRFSGSGSGTDFTFTISSLQPEDIATYYCQQHESQSPTFGPGTKVDIK	30	610000	1.8e-05
mAb23 (antibody, human IgG4, V domains shown, Expressed as human IgG4 (S228P EU)) VH: EVQLLESGGGLVQPGGSLRLSCAASGFTFSKYSMTWVRQAPGKGLEWVSSIVPYGDLTQYADSVKGRFTISRDNSKNTLYLQMNSLRAEDTAVYYCAKGPGWGSFDLWGRGTLVTVSS VL: DIQMTQSPSSLSASVGDRVTITCQASQDINNYLNWYQQKPGKAPKLLIYDASNLQTGVPSRFSGSGSGTDFTFTISSLQPEDIATYYCQQHESQSPTFGPGTKVDIK	< 30	720000	

The next lines start with the values.

Kd [pM]	kon [M⁻¹ s⁻¹]	koff [s⁻¹]	Binder
< 30	750000		mAb21 (antibody, human IgG4, V domains shown, Expressed as human IgG4 (S228P EU)) VH: EVQLLESGGGLVQPGGSLRLSCAASGFTFSHYSMTWVRQAPGKGLEWVSSIVPYGDLTQYADSVKGRFTISRDNSKNTLYLQMNSLRAEDTAVYYCAKGPGWGSFDLWGRGTLVTVSS VL: DIQMTQSPSSLSASVGDRVTITCQASQDINNYLNWYQQKPGKAPKLLIYDASNLQTGVPSRFSGSGSGTDFTFTISSLQPEDIATYYCQQHESQSPTFGPGTKVDIK
< 30	690000		mAb31 (antibody, human IgG4, V domains shown, Expressed as human IgG4 (S228P EU)) VH: EVQLLESGGGLVQPGGSLRLSCAASGFTFSVYSMTWVRQAPGKGLEWVSSIVPYGDLTQYADSVKGRFTISRDNSKNTLYLQMNSLRAEDTAVYYCAKGPGWGSFDLWGRGTLVTVSS VL: DIQMTQSPSSLSASVGDRVTITCQASQDINNYLNWYQQKPGKAPKLLIYDASNLQTGVPSRFSGSGSGTDFTFTISSLQPEDIATYYCQQHESQSPTFGPGTKVDIK
